From PMC6780499, “Characterization, Recombinant Production and Structure-Function Analysis of NvCI, A Picomolar Metallocarboxypeptidase Inhibitor from the Marine Snail Nerita versicolor” (Marine Drugs, 2019) come the findings set out here.

The test system of one series is HepG2 cells. As to the kind of experiment: Cytotoxicity, XTT assay. In kind it is cell-based, human. The following applies: 72 h incubation, 2 to 250 µg/ml, three independent experiments. Here is the method:
Cytotoxicity effect of NvCI was tested in a cell culture system using the human hepatocyte cell line HepG2 (American Type Culture Collection (ATCC)). The cells were grown in Dulbecco’s modified Eagle’s medium (DMEM) medium supplemented with 10% (v/v) heat inactivated fetal bovine serum, 2 mM glutamine (Life Technologies Inc.), in a highly humidified atmosphere of 90% air with 10% CO2 at 37 °C. Growth inhibitory effect was measured by the microculture tetrazolium [2,3-bis-(2-methoxy-4-nitro-5-sulfophenyl)-2H-tetrazolium-5-carboxanilide, XTT] assay. Following the addition of different inhibitor concentrations to quadruplicate wells, plates were incubated at 37 °C for 72 h. Aliquots of 20 µl of XTT solution were then added to each well. After 3 h, the color formed was quantitated by a spectrophotometric plate reader (PerkinElmer Victor3 V) at a wavelength of 490 nm. Cell viability was expressed as a percentage of the control level.
Cell viability of HepG2 cells after 72 h incubation with NvCI at various concentrations (2 to 250 µg/ml). Untreated cells were used as controls. Data represent the mean and standard error of the mean (SEM) of three independent experiments.

The next series concerns the target T1, hCPA2 (Homo sapiens, UniProt P48052).
T1 sequence (P48052 115-419): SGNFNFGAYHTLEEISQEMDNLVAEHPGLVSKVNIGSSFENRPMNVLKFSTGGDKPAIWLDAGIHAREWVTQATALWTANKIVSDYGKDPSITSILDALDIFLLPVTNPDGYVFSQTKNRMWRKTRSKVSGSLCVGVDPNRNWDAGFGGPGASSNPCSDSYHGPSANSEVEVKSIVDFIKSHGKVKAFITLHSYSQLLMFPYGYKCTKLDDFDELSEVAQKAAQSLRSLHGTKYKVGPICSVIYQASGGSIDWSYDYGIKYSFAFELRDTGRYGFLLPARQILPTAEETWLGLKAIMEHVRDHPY
As to the kind of experiment: Ki determination, tight-binding inhibition of metallocarboxypeptidase. The following applies: tight-binding equation fit, equilibrium conditions; substrate AAFP 0.1mM, 20mM Tris-HCl pH 7.5, 500mM NaCl; preincubation 15 min; 37 °C; means (n = 3) ± SD. In kind it is biochemical. Here is the method:
(§1) Inhibitory activities against CPA- and CPB-type forms (bovine and human variants of CPA1, CPA2, CPA4, CPB1, and TAFI) were assayed for all extracts, subject to the experimental conditions that enzyme (E), substrate (S) and inhibitor (I) concentrations as well as the [I]/[E] ratio and preincubation time followed the requirements for tight-binding inhibitor assays. Similar approaches were followed to measure the activities of proteases of different catalytic types, like pepsin, papain, trypsin and subtilisin [45, 46, 47, 48]. All assays were performed in triplicate at 25 °C in a multiplexed manner. For 96-well assays an iEMS spectrophotometer reader/dispenser FM (Labsystems, Finland) was used with a final reaction volume of 250 μL. For cuvette assays, a Cary 400 Bio spectrophotometer (Varian Inc., Palo Alto, CA, USA) spectrophotometer was used with a final reaction volume of 1 ml. The reactions were followed at 5 s intervals for 5 min and recorded as initial velocities. In the protease inhibition assays, mixtures of activity buffer, biological sample and enzyme were preincubated at 25 °C for 10min, before substrate addition. The assay conditions were as follows: for CPA-like enzymes, 7.0nM CPA, 0.1mM AAFP substrate in 20mM Tris-HCl pH 7.5, 500mMNaCl, 1% v/v dimethyl sulfoxide (DMSO), 0.05% w/v BRIJ-35 was used. For CPB-like enzymes, CPB 3.0nM CPB, 0.1mM AAFA substrate and activity buffer of 20 mM Tris-HCl pH [50].
(§2) The Ki values of natural and recombinant NvCI against bCPA1, hCPA1, hCPA2, rat CPA3, hCPA4, hCPB1, bTAFI, hTAFI, hCPD and hCPZ were determined by measuring the enzymatic residual activity (Vi/V0 = a) at different inhibitor concentrations and using a fixed enzyme and substrate concentrations as described above, where vi and v0 are the fraction of enzymatic activity in the presence and absence of inhibitor, respectively, in terms of initial velocities. The determination of Ki values was carried out on equilibrium conditions ([E0]/Ki ≤ 10), using a previously determined preincubation time of 15 min, required to establish enzyme-inhibitor equilibrium. Working temperature was 37 °C. The best estimates of Ki values were obtained by fitting the experimental data to the equation for tight-binding inhibitors by non-linear regression using the GraphPad Prisma 5 software (GraphPad Software, Inc., San Diego, CA, USA) at p < 0.05. The real Ki values against each of these A/B-type MCPs were calculated according to the equation described by Morrison and Copeland [19, 20].

For the next series, the target named is T2, hCPB (Homo sapiens, UniProt P15086).
T2 sequence (P15086 111-417): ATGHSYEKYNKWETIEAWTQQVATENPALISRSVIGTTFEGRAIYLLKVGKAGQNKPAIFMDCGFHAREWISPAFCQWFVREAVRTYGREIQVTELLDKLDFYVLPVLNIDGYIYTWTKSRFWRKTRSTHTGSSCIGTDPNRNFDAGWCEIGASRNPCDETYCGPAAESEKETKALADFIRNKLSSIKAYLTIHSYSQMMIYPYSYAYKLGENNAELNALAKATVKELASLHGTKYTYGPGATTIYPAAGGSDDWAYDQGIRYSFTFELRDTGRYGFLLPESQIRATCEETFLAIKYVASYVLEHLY
The description is as above. In kind it is biochemical. The following applies: tight-binding equation fit, equilibrium conditions; substrate AAFA 0.1mM; preincubation 15 min; 37 °C; means (n = 3) ± SD. As for the experimental part:
as §1, §2

No end group written: not given here.

Turning to “NvCI: 53-residue, three-disulphide proteinaceous metallocarboxypeptidase inhibitor from the marine snail Nerita versicolor; major isoform; UniProt P86912 (FHVPDDRPCINPGRCPLVPDATCTFVCKAADNDFGYECQHVWTFEGQRVGCYA; disulfide (positions not given here); also: three disulphides, pairing not given here; UniProt P86912 1-53, looked up)”, the “cytotoxicity / cell viability” value in the series with HepG2 cells was “None of the NvCI concentrations assayed exhibited substantial cytotoxicity”. The Ki with hCPA2 amounted to 6.51 ± 0.0686 nM; with hCPB, 0.111 ± 0.0047 nM.
